Percent in the form of heterotetramers and percent of total band intensity in the dimer band data for two substances are collected here from doi:10.1101/054106.

For the test, the target named is potato ADP-glucose pyrophosphorylase (AGPase) small subunit, wild type (potato (S. tuberosum)) (UniProt P23509). Put plainly: native gel or EMSA.
Sequence of potato ADP-glucose pyrophosphorylase (AGPase) small subunit, wild type (potato (S. tuberosum)) (P23509 73-521): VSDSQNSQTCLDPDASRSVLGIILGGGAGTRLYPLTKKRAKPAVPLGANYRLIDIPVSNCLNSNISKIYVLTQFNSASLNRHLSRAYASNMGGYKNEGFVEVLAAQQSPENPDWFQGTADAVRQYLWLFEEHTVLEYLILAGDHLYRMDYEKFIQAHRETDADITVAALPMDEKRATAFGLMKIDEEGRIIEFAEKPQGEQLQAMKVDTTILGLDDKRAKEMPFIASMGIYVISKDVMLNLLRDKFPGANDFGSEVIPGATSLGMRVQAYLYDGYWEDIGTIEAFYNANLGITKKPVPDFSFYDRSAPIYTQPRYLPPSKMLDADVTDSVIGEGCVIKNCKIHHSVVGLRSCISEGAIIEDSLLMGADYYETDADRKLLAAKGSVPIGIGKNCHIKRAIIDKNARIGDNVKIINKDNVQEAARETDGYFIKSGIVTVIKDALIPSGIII

Take “potato ADP-glucose pyrophosphorylase (AGPase) large subunit, E370G mutant (enzyme)”: the percent in the form of heterotetramers was determined as 90%.
“potato ADP-glucose pyrophosphorylase (AGPase) large subunit, E370R mutant (enzyme)” showed a percent of total band intensity in the dimer band of 40%.
